Laboratory results taken from publication PMC8119897.

Legend:
[1] = biological target: Fructose-1,6-bisphosphate aldolase FBA^P of Bacillus methanolicus MGA3 (encoded on plasmid pBM19) (Bacillus methanolicus MGA3); assay: crystal structure; FBA^P crystallised by sitting-drop vapor diffusion at 8°C; reservoir 20% PEG 4000, 0.2 M imidazole/malate buffer pH 6; molecular replacement with PDB 3Q94
[2] = biological target: Fructose-1,6-bisphosphate aldolase FBA^C of Bacillus methanolicus MGA3 (chromosomally encoded) (Bacillus methanolicus MGA3); assay: crystal structure; FBA^C crystallised by sitting-drop vapor diffusion at 20°C; reservoir 0.1 M sodium acetate trihydrate pH 4.5, 2.0 M ammonium sulfate; molecular replacement with PDB 3Q94

Row | Substance | stoichiometry N [1] | stoichiometry N [2]
1 | Fructose-1,6-bisphosphate aldolase FBA^P of Bacillus methanolicus MGA3 (encoded on plasmid pBM19) (enzyme) | 4 | –
2 | Fructose-1,6-bisphosphate aldolase FBA^C of Bacillus methanolicus MGA3 (chromosomally encoded) (enzyme) | – | 4
